This note sets out measurements from publication PMC5906663.

The target of experiment [1] is human NCAM Ig1 Fc fusion protein (human). Briefly: pull-down; 1 ug of neurocan (human or mouse) incubated with 1 ug of Fc protein in TBS for 1 hr at 37 C; Fc proteins pulled down with Protein A/G Sepharose beads; immunoblot, densitometry. On the technique in general: In western blotting, separated proteins are transferred to a membrane and probed.
For experiment [2], the target named is human NCAM Ig1-3 Fc fusion protein (human). The description is as above.
Experiment [3] has as its target human NCAM Ig2 Fc fusion protein (human). The experiment is described as above.
Experiment [4] has as its target human NCAM Ig1-2 Fc fusion protein (human). The description is as above.
Experiment [5] has as its target NCAM K162D mutant expressed in HEK293T cells (UniProt P13591). Description: co-IP; lysates (1 mg, RIPA buffer) of HEK293T cells transfected with NCAM140, NCAM mutants or EphA3, incubated with recombinant neurocan; precipitated with antibodies against NCAM (H-300) or EphA3 (C-19) and Protein A/G agarose; immunoblot for neurocan, densitometry.
For experiment [6], the target named is NCAM R156E mutant expressed in HEK293T cells (UniProt P13591). Described as above.
Experiment [7] deals with human NCAM Ig1-5/FN1-2 Fc fusion protein (full-length NCAM-EC) (human) (UniProt P13591). Briefly: pull-down; 1 ug of neurocan (human or mouse) incubated with 1 ug of Fc protein in TBS for 1 hr at 37 C; Fc proteins pulled down with Protein A/G Sepharose beads; immunoblot, densitometry.

Take “recombinant human neurocan (full-length protein) (from UniProt O14594 23-1321) (natural protein)”: the neurocan bound, percent of the amount bound to NCAM-EC-Fc is 23% in experiment [1], 50% in experiment [2], 129% in experiment [3] and 33% in experiment [4]. The neurocan co-immunoprecipitated, percent of WT NCAM in experiment [5] is 41 % of WT; in experiment [6], 32 % of WT.
Substance “recombinant mouse neurocan Glu23-637 (a truncation lacking the sushi domain) (from UniProt P55066 23-637) (domain or fragment)” yielded a neurocan bound to NCAM-EC-Fc, percent of the human neurocan level in experiment [7] of 93%.
